The nature of data set [1]: folding stability dG unfold from trypsin proteolysis; higher = more stable. In short, it runs like this: (§1)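 How resistant each design was to proteolysis was captured as K50, inferred by Bayesian fitting of sequencing counts. Unfolding free energy was then derived relative to a sequence-predicted unfolded-state K50 and a shared folded-state K50, per protease or combined. Digestion used trypsin and chymotrypsin at 11 threefold-diluted concentrations plus a no-protease condition, on mini-proteins under 80 residues without cysteine in a PA-tagged cDNA display construct. Designs were kept only when AlphaFold2 dimer inter-PAE was above 15.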

Data set [2] is described as follows: folding stability dG unfold from chymotrypsin proteolysis; higher = more stable. The method in brief:
as §1

The nature of data set [3]: folding stability dG unfold (combined trypsin and chymotrypsin); higher = more stable. In short, it runs like this:
as §1

± gives the half width of the 95% confidence interval.

“SAGGSAGGSAAYTTPDGTNIILKDPNRPVVSLYKKDPSTNTWTPVSTLPISEVPEEILELLSAGGSAGGSAG [r3_241_JUSTAS]”: the “folding stability dG unfold” value in data set [1] was 0.426 ± 0.022 kcal/mol; in data set [2], 0.583 ± 0.079 kcal/mol; in data set [3], 0.599 ± 0.062 kcal/mol.
The corresponding values for “SAGGSAGGSADDEVVEIVDVLPLPNRPVLVVKVRGPDGQTKVYDPATGKWLTPEEAKAALSSAGGSAGGSAG [r3_206_TrMRF]” are 1.09 ± 0.032 kcal/mol, 1.98 ± 0.045 kcal/mol and 1.61 ± 0.086 kcal/mol.
On to “SAGGSAGGSADGNKPPEIKINLEVERHPNGMVEITATLHWPGGKEFPVRIMYNPDKIFIEISAGGSAGGSAG [r3_259_TrROS]”, for which the “folding stability dG unfold” value was 2.95 ± 0.31 kcal/mol in data set [1], 3.4 ± 0.16 kcal/mol in data set [2] and 3.19 ± 0.14 kcal/mol in data set [3].
Regarding “SAGGSAGGSADGWVFLVGADVEVEPVPASLLNVPRSVPGEENPYVVKLKEVSFLLVPAKELSAGGSAGGSAG [r3_488_TrMRF]”, the “folding stability dG unfold” value is -0.906 ± 0.39 kcal/mol in data set [1], 0.734 ± 0.23 kcal/mol in data set [2] and 0.185 ± 0.16 kcal/mol in data set [3].
The corresponding values for “SAGGSAGGSADIGDPSKIKPKPLHFSFPVKIKLSFEYNGPDGVKKTFSLELTFTVVDKGLGSAGGSAGGSAG [r3_380_TrMRF]” are 3.15 ± 0.2 kcal/mol, 4.14 ± 0.21 kcal/mol and 3.89 ± 0.44 kcal/mol.
As for “SAGGSAGGSADLLEELPGLEVVDIERKGNSVVALFRNKETGELVRVTVDADGNITVEVLPLESAGGSAGGSA [r18_26_TrROS_Hall]”, the “folding stability dG unfold” value in data set [1] came to 3.7 ± 0.1 kcal/mol; in data set [2] it was 4.02 ± 0.072 kcal/mol; in data set [3], 3.99 ± 0.11 kcal/mol.
“SAGGSAGGSADWQKLEYPFPPGMPLDNIKEELRDLFPGKKPTIEIDKIEPHNGQYWIKITVKSAGGSAGGSA [r18_360_TrROS]”: the “folding stability dG unfold” value was 0.42 ± 0.047 kcal/mol in data set [1], 0.0785 ± 0.15 kcal/mol in data set [2] and 0.291 ± 0.075 kcal/mol in data set [3].
The matching figures for “SAGGSAGGSAEELLKKLAEELGLEEGDEVTIEVDGKLIKIYFNKDGKIVKVEVYELDPEDLSAGGSAGGSAG [r3_468_TrROS_Hall]”: 2.01 ± 0.11 kcal/mol, 3.59 ± 0.087 kcal/mol and 3.25 ± 0.079 kcal/mol.
Turning to “SAGGSAGGSAEEVTVTVKIERTTEDGEKVEETITVTVPAEKLDELKKAAEEAGFTVVEVTPSAGGSAGGSAG [r3_453_TrROS_Hall]”, the “folding stability dG unfold” value in data set [1] is 2.68 ± 0.14 kcal/mol; in data set [2] it was 2.19 ± 0.14 kcal/mol; in data set [3], 2.38 ± 0.1 kcal/mol.
The matching figures for “SAGGSAGGSAEKGIAFILLVTEEGDLEKALETAEELKKELEEKTGKPVEVVVNIFVVEPELFSAGGSAGGSA [r18_515_TrMRF]”: 1.81 ± 0.048 kcal/mol, 2.38 ± 0.084 kcal/mol and 2.24 ± 0.14 kcal/mol.
The corresponding values for “SAGGSAGGSAEKVITVWIPLPPGQGVDEIAKEIARYLGFPNIKIDNIQYDPEDGWYQITFKLSAGGSAGGSA [r18_481_TrROS]” are 3.48 ± 0.096 kcal/mol, 4.163 ± 0.032 kcal/mol and 3.97 ± 0.061 kcal/mol.
Consider “SAGGSAGGSAEPDIEVVVTPVPGPYGPLYYRVEVRIPEAGRTVFTYARLDDPEEIEGIPIESAGGSAGGSAG [r3_432_TrMRF]”, for which the “folding stability dG unfold” value in data set [1] worked out at 0.829 ± 0.066 kcal/mol; in data set [2], 0.545 ± 0.16 kcal/mol; in data set [3], 0.7 ± 0.077 kcal/mol.
The matching figures for “SAGGSAGGSAEPPEVRIRLEVRLLPDGTLEVTAEIEVDGKTYRITVTVDAKTNEIVSVSIEPSAGGSAGGSA [r18_459_TrROS_Hall]”: 4.44 ± 0.36 kcal/mol, 3.89 ± 0.21 kcal/mol and 4.3 ± 0.46 kcal/mol.
The corresponding values for “SAGGSAGGSAEPPPLVVVTEVRTITVEIDLDDLSEEEREALENLDTVTITVTRVVVVPREDLSAGGSAGGSA [r18_127_TrROS_Hall]” are 2.42 ± 0.22 kcal/mol, 1.39 ± 0.22 kcal/mol and 1.84 ± 0.46 kcal/mol.
The corresponding values for “SAGGSAGGSAETVTITLTVPPGASVEEILAALKAKYPDITSVSVERREDGYLKVTVTVRLDSAGGSAGGSAG [r3_371_TrROS_Hall]” are 5.28 ± 0.47 kcal/mol, 4.02 ± 0.068 kcal/mol and 4.46 ± 0.074 kcal/mol.
Regarding “SAGGSAGGSAEWKPITYWVPPGQSIKEIADDLMDKNPRITDAEMEYDPDGYMKVTLTVRLDSAGGSAGGSAG [r3_371_TrROS]”, the “folding stability dG unfold” value in data set [1] is 0.493 ± 0.056 kcal/mol; in data set [2], 0.505 ± 0.14 kcal/mol; in data set [3], 0.552 ± 0.086 kcal/mol.
The corresponding values for “SAGGSAGGSAEYRVVVVPPVPTVLIFVKPDRVYVVDLDPATGRATIRPVNVPPNVLPESLLTSAGGSAGGSA [r18_59_TrMRF]” are 1.27 ± 0.02 kcal/mol, 1.67 ± 0.06 kcal/mol and 1.52 ± 0.056 kcal/mol.
In the case of “SAGGSAGGSAFKLPPGKKITIFFDPENGNFAIMVPDGNERRVPMPAEELIKLGFPVEIIGPWSAGGSAGGSA [r18_125_TrROS]”, the entries for the “folding stability dG unfold” value in data set [1], in data set [2] and in data set [3] were 0.365 ± 0.14 kcal/mol, 0.566 ± 0.25 kcal/mol and 0.517 ± 0.19 kcal/mol, respectively.
For “SAGGSAGGSAFQIEDLKIEKVEFNPDGMVHNELEITLPGGKELEVSIMIDPKKPGKLMIMIVSAGGSAGGSA [r18_97_TrROS]”, the results for the “folding stability dG unfold” value in data set [1], in data set [2] and in data set [3] were 1.98 ± 0.11 kcal/mol, 1.42 ± 0.049 kcal/mol and 1.66 ± 0.31 kcal/mol, respectively.
In the case of “SAGGSAGGSAGAKKLPPGQVALRIEPVTVTVTDEDGKERTVTRIRLVDAATGEEYEFTFPSAGGSAGGSAGG [r17_266_TrROS_Hall]”, the “folding stability dG unfold” value in data set [1] was 0.829 ± 0.1 kcal/mol; in data set [2], 0.531 ± 0.1 kcal/mol; in data set [3] it was 0.744 ± 0.15 kcal/mol.
Consider “SAGGSAGGSAGAPPDVEEVTVTVTITNPDGSTTTTTVTATPEELAALAAAPGRPTAVSAESAGGSAGGSAGG [r17_313_JUSTAS]”, for which the results for the “folding stability dG unfold” value in data set [1], in data set [2] and in data set [3] were 0.635 ± 0.072 kcal/mol, 0.486 ± 0.015 kcal/mol and 0.595 ± 0.17 kcal/mol, respectively.
The matching figures for “SAGGSAGGSAGASPSVPFTVKVTIKSPNGLSTKTISLSSLEDLEALPLPNVVEIEITPLSSAGGSAGGSAGG [r17_290_JUSTAS]”: 1.04 ± 0.049 kcal/mol, 0.78 ± 0.14 kcal/mol and 0.907 ± 0.14 kcal/mol.
As for “SAGGSAGGSAGDAEEIADEIRENMYGPDGKYVPKEVEIKEIEPPPGQLKVEIEMPPGMPISAGGSAGGSAGG [r17_519_TrROS]”, the “folding stability dG unfold” value in data set [1] came to 1.81 ± 0.13 kcal/mol; in data set [2], 0.954 ± 0.077 kcal/mol; in data set [3], 1.32 ± 0.16 kcal/mol.
The corresponding values for “SAGGSAGGSAGDDGSDLPVVDLKVSISPFVRPLPNGEEVTVWKVLVENPGSSSRSEFYFGSAGGSAGGSAGG [r17_59_TrMRF]” are 0.337 ± 0.12 kcal/mol, 0.118 ± 0.19 kcal/mol and 0.283 ± 0.15 kcal/mol.
The matching figures for “SAGGSAGGSAGDDNKKKPKPKIEIQPVRMTMPFPENGLRIEIDIWVIKDGNIIFMIEWYPSAGGSAGGSAGG [r11_463_TrROS]”: 2.92 ± 0.12 kcal/mol, 3.72 ± 0.17 kcal/mol and 3.3 ± 0.11 kcal/mol.
The matching figures for “SAGGSAGGSAGDEKYTLTVTIPVPKNAPVLVGAEKGYEVIDLNPDAPVEEGYITVKVEFGSAGGSAGGSAGG [r11_701_TrMRF]”: -0.376 ± 0.086 kcal/mol, -0.833 ± 0.14 kcal/mol and -0.391 ± 0.15 kcal/mol.
“SAGGSAGGSAGDEPNDVVKIDFTFFFEDGYMIEMDIVIVPNGNIAIEIEIEPIKPPDEGDSAGGSAGGSAGG [r11_998_TrROS]”: the entries for the “folding stability dG unfold” value in data set [1], in data set [2] and in data set [3] were 2.06 ± 0.39 kcal/mol, 1.9 ± 0.13 kcal/mol and 2.09 ± 0.31 kcal/mol, respectively.
As to “SAGGSAGGSAGDFELDFEWHRTNDHVVLSNKARDPDNGKPLYISIIFDPDPGKLDISIMPSAGGSAGGSAGG [r17_242_TrROS]”, the “folding stability dG unfold” value was 0.396 ± 0.036 kcal/mol in data set [1], -0.858 ± 0.59 kcal/mol in data set [2] and 0.0261 ± 0.083 kcal/mol in data set [3].
The corresponding values for “SAGGSAGGSAGDGINFTLDIPIEGDFELRDVYLTPLEPENRRAFFLLRYKDGPVLLTLPLSAGGSAGGSAGG [r11_1013_TrMRF]” are 1.21 ± 0.12 kcal/mol, 0.922 ± 0.18 kcal/mol and 1.09 ± 0.1 kcal/mol.
The matching figures for “SAGGSAGGSAGDIPAIPKVIFIPYPIEKIEVFEDSVVVRVIHPDGGSETIVFPDRALILGSAGGSAGGSAGG [r11_957_TrMRF]”: 1.6 ± 0.042 kcal/mol, 1.47 ± 0.03 kcal/mol and 1.53 ± 0.11 kcal/mol.
The matching figures for “SAGGSAGGSAGDKNGKPPPKIEIVPIRMSFRFPELGWWIEIDIYVIKDPAIMISISLYPYSAGGSAGGSAGG [r11_883_TrROS]”: 3.61 ± 0.22 kcal/mol, 5.25 ± 0.17 kcal/mol and 4.91 ± 0.35 kcal/mol.
For “SAGGSAGGSAGDNFKIKIESFNIMRLPDGYVMISIKIEITVGDKPVEITIMIIIPPGAPISAGGSAGGSAGG [r17_352_TrROS]”, the “folding stability dG unfold” value was 4.03 ± 0.15 kcal/mol in data set [1], 5.74 ± 0.18 kcal/mol in data set [2] and 5.68 ± 0.41 kcal/mol in data set [3].
As for “SAGGSAGGSAGDPKKKPPKPILGFELAEFEITTEDGTKYKVKALIIYFPDTGTKVIFVLGSAGGSAGGSAGG [r11_1024_TrMRF]”, the “folding stability dG unfold” value in data set [1] was determined as 2.78 ± 0.13 kcal/mol; in data set [2] it was 4.73 ± 0.13 kcal/mol; in data set [3], 4.33 ± 0.18 kcal/mol.
Regarding “SAGGSAGGSAGDTSVEYEVSVTVEVFPLPDYALVKVTLEVDYPDGSKEKVEYVFLVSPYEGSAGGSAGGSAG [r3_330_TrMRF]”, the “folding stability dG unfold” value stood at 2.56 ± 0.19 kcal/mol in data set [1], 3.35 ± 0.082 kcal/mol in data set [2] and 3.04 ± 0.1 kcal/mol in data set [3].
The matching figures for “SAGGSAGGSAGDVPPSETVTITVSSEAEKEAIKKEHPEVNLTFTEAEPPVAFDPTSDVTASAGGSAGGSAGG [r17_126_JUSTAS]”: 0.842 ± 0.096 kcal/mol, 1.27 ± 0.15 kcal/mol and 1.21 ± 0.17 kcal/mol.
On to “SAGGSAGGSAGEEEELPLVIRVRFKGPEEVEIEIEAESLEDALAAIESLPDIEEIEILPRSAGGSAGGSAGG [r11_587_TrROS_Hall]”, for which the “folding stability dG unfold” value in data set [1] worked out at 0.632 ± 0.034 kcal/mol; in data set [2], 1.982 ± 0.0079 kcal/mol; in data set [3] it was 1.61 ± 0.055 kcal/mol.
